We go through two molecules from patent US12060424 (AMUNIX PHARMACEUTICALS, dated 2024).

For assay [1], the target named is human CD3 on cells (CD3+ Jurkat cells; purified human CD3 positive T cells) (human, UniProt P07766 23-207). As to the kind of experiment: cell-based or functional assay.
For assay [2], the target named is recombinant human CD3 epsilon & delta (rhCD3ε & δ), Creative BioMart cat #CD3E&CD3D-219H (human) (UniProt P07766). As to the kind of experiment: sandwich ELISA: rhCD3ε & δ coated, peroxidase-conjugated protein L detection. (In general: ELISA stands for enzyme-linked immunosorbent assay.)
Sequence of recombinant human CD3 epsilon & delta (rhCD3ε & δ), Creative BioMart cat #CD3E&CD3D-219H (human) (P07766 23-126, stated change not applied, chain 1 of 2): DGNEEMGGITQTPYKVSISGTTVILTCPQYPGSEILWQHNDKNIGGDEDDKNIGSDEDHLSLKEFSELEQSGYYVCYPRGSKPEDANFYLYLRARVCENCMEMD
Sequence of recombinant human CD3 epsilon & delta (rhCD3ε & δ), Creative BioMart cat #CD3E&CD3D-219H (human) (P04234 22-105, stated change not applied, chain 2 of 2, further chain): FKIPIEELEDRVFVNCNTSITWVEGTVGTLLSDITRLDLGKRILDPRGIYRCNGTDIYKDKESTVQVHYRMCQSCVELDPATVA
Assay [3] shares this target. Description: SPR (Biacore 3000), His-tagged CD3εδ coupled to chip, ProTIA as analyte at 5-6 concentrations. A general note: In SPR one partner is held on a chip, and binding of the other changes the refractive index at the surface.
Assay [4] has as its target T1, Fc-tagged EpCAM (R&D Systems, cat #960-EP-050), human, coupled to SPR chip (human, UniProt P16422 24-265).
T1 construct: Bought reagent; also called human EpCAM; EpCAM chip; not shown: Fc tag of the bought reagent
T1 sequence (looked up): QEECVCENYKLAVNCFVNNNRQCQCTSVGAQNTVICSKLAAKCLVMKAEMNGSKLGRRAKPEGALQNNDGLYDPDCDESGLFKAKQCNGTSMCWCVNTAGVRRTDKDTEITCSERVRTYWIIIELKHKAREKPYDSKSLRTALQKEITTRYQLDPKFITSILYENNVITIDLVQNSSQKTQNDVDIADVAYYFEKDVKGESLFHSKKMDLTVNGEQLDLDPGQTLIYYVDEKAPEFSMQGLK
Description: SPR (Biacore 3000), Fc-tagged EpCAM coupled to chip, ProTIA as analyte at 5-6 concentrations.

In assay [5] the target is T2, recombinant human EpCAM (rhEpCAM), coated on ELISA plate (human, UniProt P16422 24-265).
T2 construct: Bought reagent
T2 sequence (looked up): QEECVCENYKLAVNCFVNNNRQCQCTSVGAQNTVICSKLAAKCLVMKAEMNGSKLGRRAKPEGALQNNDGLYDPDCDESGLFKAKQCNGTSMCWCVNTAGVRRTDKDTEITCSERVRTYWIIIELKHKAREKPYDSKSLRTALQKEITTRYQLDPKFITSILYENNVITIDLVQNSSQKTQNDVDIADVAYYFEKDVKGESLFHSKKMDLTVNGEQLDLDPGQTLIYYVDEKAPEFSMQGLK
Description: sandwich ELISA: rhEpCAM coated, peroxidase-conjugated protein L detection.

Assay [6] has as its target T3, human EpCAM expressed on cells (CHO cells stably transfected with human EpCAM); EpCAM-positive human tumor … (human, UniProt P16422 24-314).
T3 sequence (looked up): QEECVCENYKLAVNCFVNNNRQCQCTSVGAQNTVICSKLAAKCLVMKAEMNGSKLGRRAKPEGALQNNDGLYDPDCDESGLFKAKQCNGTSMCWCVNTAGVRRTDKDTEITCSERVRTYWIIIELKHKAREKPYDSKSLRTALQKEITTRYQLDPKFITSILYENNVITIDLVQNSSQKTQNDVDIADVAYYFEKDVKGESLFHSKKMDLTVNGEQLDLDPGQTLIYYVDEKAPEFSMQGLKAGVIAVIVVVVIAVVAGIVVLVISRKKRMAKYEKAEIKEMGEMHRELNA
Description: cell-based or functional assay.

Assay [7] addresses recombinant human CD3 epsilon & delta (rhCD3ε & δ), Creative BioMart cat #CD3E&CD3D-219H (human) (UniProt P07766). As to the kind of experiment: sandwich ELISA: rhCD3ε & δ coated, biotinylated anti-XTEN antibody detection.

Sequence of human CD3 on cells (CD3+ Jurkat cells; purified human CD3 positive T cells) (P07766 23-207): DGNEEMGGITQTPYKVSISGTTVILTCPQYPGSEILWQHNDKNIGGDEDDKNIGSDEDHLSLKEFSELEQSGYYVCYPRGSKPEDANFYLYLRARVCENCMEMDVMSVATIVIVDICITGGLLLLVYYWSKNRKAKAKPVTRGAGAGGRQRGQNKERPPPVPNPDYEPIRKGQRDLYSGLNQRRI

B1: AC1476 aEpCAM-aCD3-BSRS1-XTEN_AE864-His(6), protease-untreated (uncleaved) anti-EpCAM×anti-CD3 ProTIA (bispecific antibody)
chain: DIQMTQSPSSLSASVGDRVTITCRSTKSLLHSNGITYLYWYQQKPGKAPKLLIYQMSNLASGVPSRFSSSGSGTDFTLTISSLQPEDFATYYCAQNLEIPRTFGQGTKVEIKGATPPETGAETESPGETTGGSAESEPPGEGQVQLVQSGPGLVQPGGSVRISCAASGYTFTNYGMNWVKQAPGKGLEWMGWINTYTGESTYADSFKGRFTFSLDTSASAAYLQINSLRAEDTAVYYCARFAIKGDYWGQGTLLTVSSGGGGSDIQMTQSPSSLSASVGDRVTITCRASQDIRNYLNWYQQKPGKAPKLLIYYTSRLESGVPSRFSGSGSGTDYTLTISSLQPEDFATYYCQQGNTLPWTFGQGTKVEIKGATPPETGAETESPGETTGGSAESEPPGEGEVQLVESGGGLVQPGGSLRLSCAASGYSFTGYTMNWVRQAPGKGLEWVALINPYKGVSTYNQKFKDRFTISVDKSKNTAYLQMNSLRAEDTAVYYCARSGYYGDSDWYFDVWGQGTLVTVSSGTAEAASASGLSGRSDNHSPLGLAGSPGSPAGSPTSTEEGTSESATPESGPGTSTEPSEGSAPGSPAGSPTSTEEGTSTEPSEGSAPGTSTEPSEGSAPGTSESATPESGPGSEPATSGSETPGSEPATSGSETPGSPAGSPTSTEEGTSESATPESGPGTSTEPSEGSAPGTSTEPSEGSAPGSPAGSPTSTEEGTSTEPSEGSAPGTSTEPSEGSAPGTSESATPESGPGTSTEPSEGSAPGTSESATPESGPGSEPATSGSETPGTSTEPSEGSAPGTSTEPSEGSAPGTSESATPESGPGTSESATPESGPGSPAGSPTSTEEGTSESATPESGPGSEPATSGSETPGTSESATPESGPGTSTEPSEGSAPGTSTEPSEGSAPGTSTEPSEGSAPGTSTEPSEGSAPGTSTEPSEGSAPGTSTEPSEGSAPGSPAGSPTSTEEGTSTEPSEGSAPGTSESATPESGPGSEPATSGSETPGTSESATPESGPGSEPATSGSETPGTSESATPESGPGTSTEPSEGSAPGTSESATPESGPGSPAGSPTSTEEGSPAGSPTSTEEGSPAGSPTSTEEGTSESATPESGPGTSTEPSEGSAPGTSESATPESGPGSEPATSGSETPGTSESATPESGPGSEPATSGSETPGTSESATPESGPGTSTEPSEGSAPGSPAGSPTSTEEGTSESATPESGPGSEPATSGSETPGTSESATPESGPGSPAGSPTSTEEGSPAGSPTSTEEGTSTEPSEGSAPGTSESATPESGPGTSESATPESGPGTSESATPESGPGSEPATSGSETPGSEPATSGSETPGSPAGSPTSTEEGTSTEPSEGSAPGTSTEPSEGSAPGSEPATSGSETPGTSESATPESGPGTSTEPSEGSAPGHHHHHH
notes: Single chain: anti-EpCAM scFv, anti-CD3 scFv, release segment BSRS-1, XTEN864, His6; also called ProTIA-X
As usually defined, the EC50 is the concentration that produces a half-maximal response. As a reminder, the Kd is the free concentration of one partner at which half of the binding sites on the other are occupied at equilibrium, for simple one-to-one binding. For B1, in assay [1], the “EC50, LDH release cytotoxicity, purified human CD3 positive T cells with OVCAR-3 cells 5:1” value turned out to be 0.0007 nM and the “EC50, LDH release cytotoxicity, purified human CD3 positive T cells with SK-OV-3 cells 5:1” value was 0.134 nM. Further, in assay [2], the EC50 was found to be 1.8 nM; the fold hindrance of binding by XTEN864 (against the cleaved and released anti-CD3scFv portion) came out at 5.8 fold. For the same molecule, the dissociation constant Kd in assay [3] was determined as 15.3 nM. Further, in assay [4], the affinity, expressed as Kd, was 11.4 nM. Moreover, in assay [5], the EC50 came out at 0.28 nM and the “fold hindrance of binding by XTEN864 (against the protease-treated ProTIA)” value was not below 2.3 fold.

B2: AC1484 non-cleavable anti-EpCAM×anti-CD3 ProTIA (ProTIA without the release segment cleavage sequence) (bispecific antibody)
chain: DIQMTQSPSSLSASVGDRVTITCRSTKSLLHSNGITYLYWYQQKPGKAPKLLIYQMSNLASGVPSRFSSSGSGTDFTLTISSLQPEDFATYYCAQNLEIPRTFGQGTKVEIKGATPPETGAETESPGETTGGSAESEPPGEGQVQLVQSGPGLVQPGGSVRISCAASGYTFTNYGMNWVKQAPGKGLEWMGWINTYTGESTYADSFKGRFTFSLDTSASAAYLQINSLRAEDTAVYYCARFAIKGDYWGQGTLLTVSSGGGGSDIQMTQSPSSLSASVGDRVTITCRASQDIRNYLNWYQQKPGKAPKLLIYYTSRLESGVPSRFSGSGSGTDYTLTISSLQPEDFATYYCQQGNTLPWTFGQGTKVEIKGATPPETGAETESPGETTGGSAESEPPGEGEVQLVESGGGLVQPGGSLRLSCAASGYSFTGYTMNWVRQAPGKGLEWVALINPYKGVSTYNQKFKDRFTISVDKSKNTAYLQMNSLRAEDTAVYYCARSGYYGDSDWYFDVWGQGTLVTVSSGSPGSPAGSPTSTEEGTSESATPESGPGTSTEPSEGSAPGSPAGSPTSTEEGTSTEPSEGSAPGTSTEPSEGSAPGTSESATPESGPGSEPATSGSETPGSEPATSGSETPGSPAGSPTSTEEGTSESATPESGPGTSTEPSEGSAPGTSTEPSEGSAPGSPAGSPTSTEEGTSTEPSEGSAPGTSTEPSEGSAPGTSESATPESGPGTSTEPSEGSAPGTSESATPESGPGSEPATSGSETPGTSTEPSEGSAPGTSTEPSEGSAPGTSESATPESGPGTSESATPESGPGSPAGSPTSTEEGTSESATPESGPGSEPATSGSETPGTSESATPESGPGTSTEPSEGSAPGTSTEPSEGSAPGTSTEPSEGSAPGTSTEPSEGSAPGTSTEPSEGSAPGTSTEPSEGSAPGSPAGSPTSTEEGTSTEPSEGSAPGTSESATPESGPGSEPATSGSETPGTSESATPESGPGSEPATSGSETPGTSESATPESGPGTSTEPSEGSAPGTSESATPESGPGSPAGSPTSTEEGSPAGSPTSTEEGSPAGSPTSTEEGTSESATPESGPGTSTEPSEGSAPGTSESATPESGPGSEPATSGSETPGTSESATPESGPGSEPATSGSETPGTSESATPESGPGTSTEPSEGSAPGSPAGSPTSTEEGTSESATPESGPGSEPATSGSETPGTSESATPESGPGSPAGSPTSTEEGSPAGSPTSTEEGTSTEPSEGSAPGTSESATPESGPGTSESATPESGPGTSESATPESGPGSEPATSGSETPGSEPATSGSETPGSPAGSPTSTEEGTSTEPSEGSAPGTSTEPSEGSAPGSEPATSGSETPGTSESATPESGPGTSTEPSEGSAPGHHHHHH
notes: Single chain: anti-EpCAM scFv, anti-CD3 scFv, XTEN864, His6, no release segment; also called non-cleavable ProTIA; protease-non-cleavable anti-EpCAM×anti-CD3 ProTIA
With B2, in assay [1], the “EC50, LDH release cytotoxicity, purified human CD3 positive T cells with OVCAR-3 cells 5:1” value worked out at 0.086 nM. Also, the “EC50, LDH release cytotoxicity, purified human CD3 positive T cells with SK-OV-3 cells 5:1” value in assay [1] was determined as 2.66 nM. Moreover, in assay [6], the “EC50 (pM), caspase 3/7 cytotoxicity, PBMC with HCT-116 cells 10:1” value is 1270 pM. Moreover, the “EC50 (pM), caspase 3/7 cytotoxicity, PBMC with HPAF-II cells 10:1” value in assay [6] came out at 1170 pM. Further, the “EC50 (pM), caspase 3/7 cytotoxicity, PBMC with MDA-MB-231 cells 10:1” value in assay [6] was 10200 pM. The EC50 in assay [2] worked out at 2.2 nM; in assay [5], 0.32 nM; in assay [7] it was 0.027 mg/L. Moreover, the Kd in assay [3] was 27.8 nM; in assay [4], 10 nM.
